Where a chain is given by its changes, count along the chain named.

For the assay, the target named is SARS-CoV-2 spike (S) protein receptor-binding domain (RBD), residues 319-541 (SARS-CoV-2, Wuhan-Hu-1 (GenBank …, UniProt P0DTC2)). Put plainly: BLI. The settings on record: both partners purified.

B1: COVA2-39 Fab (Fab, V domains shown)
VH: QVQLVETGGGLIQPGGSLRLSCAASGFTVSSNYMSWVRQAPGKGLEWVSVIYTGGTTYYADSVKGRFTISRDNSKNTLYLQMNSLRAEDTAVYYCARAHVDTAMVESGAFDIWGQGTRVTVSS
VL: QSALTQPASVSGSPGQSITISCTGTSSDVGSYNLVSWYQQHPGKAPKLMIYEVTKRPSGVSNRFSGSKSGNTASLTISGLQAEDEADYYCCSYAGSSTWVFGGGTKLTVL
As for B1, binding was characterised by a dissociation constant (Kd) of 21 nM.

B2: COVA2-39 with the 53TGGT56 motif reverted to the germline-encoded 53SGGS56 motif (Fab, V domains shown)
VH: B1 VH with T53S, T56S
VL: B1 VL
For B2, the “fold decrease in other” value was not below 50 fold.

B3: COVA2-04 Fab (Fab, V domains shown)
VH: QVQLVETGGGLIQPGGSLRLSCAASGFTVSSNYMSWVRQAPGKGLEWVSVIYSGGSTFYADSVKGRFTISRDNSKNTLYLQMNSLRAEDTAVYYCARDLERAGGMDVWGQGTMVTVSS
VL: not shown
Take B3: the Kd (commonly the free concentration of one partner at which half of the binding sites on the other are occupied at equilibrium, for simple one-to-one binding) was 40 nM.
